Patent US20030186281A1, “Modified tetracycline repressor protein compositions and methods of use” (priority 2001, published 2003)

B1: TetRrev96/99-10: revTetR(BD) G96N V99P (protein)
chain: MSRLDKSKVINSALELLNEVGIEGLTTRKLAQKLGVEQPTLYWHVKNKRALLDALAVEILARHHDYSLPAAGESWQSFLRNNAMSFRRALLRYRDNAKPHLGTRPDEKQYDTVETQLRFMTENGFSLRDGLYAISAVSHFTLGAVLEQQEHTAALTDRPAAPDENLPPLLREALQIMDSDDGEQAFLHGLESLIRGFEVQLTALLQIV
modifications: Modified tetracycline repressor
notes: revTetR(BD) G96N V99P
B2: TetRrev96/99-11: revTetR(BD) G96R V99Y (protein)
chain: MSRLDKSKVINSALELLNEVGIEGLTTRKLAQKLGVEQPTLYWHVKNKRALLDALAVEILARHHDYSLPAAGESWQSFLRNNAMSFRRALLRYRDRAKYHLGTRPDEKQYDTVETQLRFMTENGFSLRDGLYAISAVSHFTLGAVLEQQEHTAALTDRPAAPDENLPPLLREALQIMDSDDGEQAFLHGLESLIRGFEVQLTALLQIV
modifications: Modified tetracycline repressor
notes: revTetR(BD) G96R V99Y
B3: TetRrev96/99-12: revTetR(BD) G96H V99Q (protein)
chain: MSRLDKSKVINSALELLNEVGIEGLTTRKLAQKLGVEQPTLYWHVKNKRALLDALAVEILARHHDYSLPAAGESWQSFLRNNAMSFRRALLRYRDHAKQHLGTRPDEKQYDTVETQLRFMTENGFSLRDGLYAISAVSHFTLGAVLEQQEHTAALTDRPAAPDENLPPLLREALQIMDSDDGEQAFLHGLESLIRGFEVQLTALLQIV
modifications: Modified tetracycline repressor
notes: revTetR(BD) G96H V99Q
B4: TetRrev96/99-13: revTetR(BD) G96T V99D (protein)
chain: MSRLDKSKVINSALELLNEVGIEGLTTRKLAQKLGVEQPTLYWHVKNKRALLDALAVEILARHHDYSLPAAGESWQSFLRNNAMSFRRALLRYRDTAKDHLGTRPDEKQYDTVETQLRFMTENGFSLRDGLYAISAVSHFTLGAVLEQQEHTAALTDRPAAPDENLPPLLREALQIMDSDDGEQAFLHGLESLIRGFEVQLTALLQIV
modifications: Modified tetracycline repressor
notes: revTetR(BD) G96T V99D
B5: TetRrev96/99-14: revTetR(BD) G96N V99N (protein)
chain: MSRLDKSKVINSALELLNEVGIEGLTTRKLAQKLGVEQPTLYWHVKNKRALLDALAVEILARHHDYSLPAAGESWQSFLRNNAMSFRRALLRYRDNAKNHLGTRPDEKQYDTVETQLRFMTENGFSLRDGLYAISAVSHFTLGAVLEQQEHTAALTDRPAAPDENLPPLLREALQIMDSDDGEQAFLHGLESLIRGFEVQLTALLQIV
modifications: Modified tetracycline repressor
notes: revTetR(BD) G96N V99N
B6: TetRrev96/99-15: revTetR(BD) G96P V99P (protein)
chain: MSRLDKSKVINSALELLNEVGIEGLTTRKLAQKLGVEQPTLYWHVKNKRALLDALAVEILARHHDYSLPAAGESWQSFLRNNAMSFRRALLRYRDPAKPHLGTRPDEKQYDTVETQLRFMTENGFSLRDGLYAISAVSHFTLGAVLEQQEHTAALTDRPAAPDENLPPLLREALQIMDSDDGEQAFLHGLESLIRGFEVQLTALLQIV
modifications: Modified tetracycline repressor
notes: revTetR(BD) G96P V99P
B7: TetRrevAtc4-2: revTetR(BD) R49G L55L V57V E58N R62L H63Q (protein)
chain: MSRLDKSKVINSALELLNEVGIEGLTTRKLAQKLGVEQPTLYWHVKNKGALLDALAVNILALQHDYSLPAAGESWQSFLRNNAMSFRRALLRYRDGAKVHLGTRPDEKQYDTVETQLRFMTENGFSLRDGLYAISAVSHFTLGAVLEQQEHTAALTDRPAAPDENLPPLLREALQIMDSDDGEQAFLHGLESLIRGFEVQLTALLQIV
modifications: Modified tetracycline repressor
notes: revTetR(BD) R49G L55L V57V E58N R62L H63Q
B8: TetRrev96/99-16: revTetR(BD) G96P V99Y (protein)
chain: MSRLDKSKVINSALELLNEVGIEGLTTRKLAQKLGVEQPTLYWHVKNKRALLDALAVEILARHHDYSLPAAGESWQSFLRNNAMSFRRALLRYRDPAKYHLGTRPDEKQYDTVETQLRFMTENGFSLRDGLYAISAVSHFTLGAVLEQQEHTAALTDRPAAPDENLPPLLREALQIMDSDDGEQAFLHGLESLIRGFEVQLTALLQIV
modifications: Modified tetracycline repressor
notes: revTetR(BD) G96P V99Y
B9: TetRrev96/99-17: revTetR(BD) G96T V99K (protein)
chain: MSRLDKSKVINSALELLNEVGIEGLTTRKLAQKLGVEQPTLYWHVKNKRALLDALAVEILARHHDYSLPAAGESWQSFLRNNAMSFRRALLRYRDTAKKHLGTRPDEKQYDTVETQLRFMTENGFSLRDGLYAISAVSHFTLGAVLEQQEHTAALTDRPAAPDENLPPLLREALQIMDSDDGEQAFLHGLESLIRGFEVQLTALLQIV
modifications: Modified tetracycline repressor
notes: revTetR(BD) G96T V99K
B10: TetRrev96/99-18: revTetR(BD) G96T V99P (protein)
chain: MSRLDKSKVINSALELLNEVGIEGLTTRKLAQKLGVEQPTLYWHVKNKRALLDALAVEILARHHDYSLPAAGESWQSFLRNNAMSFRRALLRYRDTAKPHLGTRPDEKQYDTVETQLRFMTENGFSLRDGLYAISAVSHFTLGAVLEQQEHTAALTDRPAAPDENLPPLLREALQIMDSDDGEQAFLHGLESLIRGFEVQLTALLQIV
modifications: Modified tetracycline repressor
notes: revTetR(BD) G96T V99P
B11: TetRrev96/99-19: revTetR(BD) G96R V99S (protein)
chain: MSRLDKSKVINSALELLNEVGIEGLTTRKLAQKLGVEQPTLYWHVKNKRALLDALAVEILARHHDYSLPAAGESWQSFLRNNAMSFRRALLRYRDRAKSHLGTRPDEKQYDTVETQLRFMTENGFSLRDGLYAISAVSHFTLGAVLEQQEHTAALTDRPAAPDENLPPLLREALQIMDSDDGEQAFLHGLESLIRGFEVQLTALLQIV
modifications: Modified tetracycline repressor
notes: revTetR(BD) G96R V99S
B12: TetRrev96/99-20: revTetR(BD) G96S V99K (protein)
chain: MSRLDKSKVINSALELLNEVGIEGLTTRKLAQKLGVEQPTLYWHVKNKRALLDALAVEILARHHDYSLPAAGESWQSFLRNNAMSFRRALLRYRDSAKKHLGTRPDEKQYDTVETQLRFMTENGFSLRDGLYAISAVSHFTLGAVLEQQEHTAALTDRPAAPDENLPPLLREALQIMDSDDGEQAFLHGLESLIRGFEVQLTALLQIV
modifications: Modified tetracycline repressor
notes: revTetR(BD) G96S V99K
B13: TetRrev96P: revTetR(BD) G96P (protein)
chain: MSRLDKSKVINSALELLNEVGIEGLTTRKLAQKLGVEQPTLYWHVKNKRALLDALAVEILARHHDYSLPAAGESWQSFLRNNAMSFRRALLRYRDPAKVHLGTRPDEKQYDTVETQLRFMTENGFSLRDGLYAISAVSHFTLGAVLEQQEHTAALTDRPAAPDENLPPLLREALQIMDSDDGEQAFLHGLESLIRGFEVQLTALLQIV
modifications: Modified tetracycline repressor
notes: revTetR(BD) G96P
B14: TetRrevAtc4-20: revTetR(BD) V57V E58K L60V A61T R62G (protein)
chain: MSRLDKSKVINSALELLNEVGIEGLTTRKLAQKLGVEQPTLYWHVKNKRALLDALAVKIVTGHHDYSLPAAGESWQSFLRNNAMSFRRALLRYRDGAKVHLGTRPDEKQYDTVETQLRFMTENGFSLRDGLYAISAVSHFTLGAVLEQQEHTAALTDRPAAPDENLPPLLREALQIMDSDDGEQAFLHGLESLIRGFEVQLTALLQIV
modifications: Modified tetracycline repressor
notes: revTetR(BD) V57V E58K L60V A61T R62G
B15: TetRrevAtc4-21: revTetR(BD) K6K D53F L55L V57L I59S A61S (protein)
chain: MSRLDKSKVINSALELLNEVGIEGLTTRKLAQKLGVEQPTLYWHVKNKRALLFALALESLSRHHDYSLPAAGESWQSFLRNNAMSFRRALLRYRDGAKVHLGTRPDEKQYDTVETQLRFMTENGFSLRDGLYAISAVSHFTLGAVLEQQEHTAALTDRPAAPDENLPPLLREALQIMDSDDGEQAFLHGLESLIRGFEVQLTALLQIV
modifications: Modified tetracycline repressor
notes: revTetR(BD) K6K D53F L55L V57L I59S A61S
B16: TetRrevAtc4-22: revTetR(BD) R49H A56P V57L L60M (protein)
chain: MSRLDKSKVINSALELLNEVGIEGLTTRKLAQKLGVEQPTLYWHVKNKHALLDALPLEIMARHHDYSLPAAGESWQSFLRNNAMSFRRALLRYRDGAKVHLGTRPDEKQYDTVETQLRFMTENGFSLRDGLYAISAVSHFTLGAVLEQQEHTAALTDRPAAPDENLPPLLREALQIMDSDDGEQAFLHGLESLIRGFEVQLTALLQIV
modifications: Modified tetracycline repressor
notes: revTetR(BD) R49H A56P V57L L60M

System: tet operator sequence
Assay: β-galactosidase activity of a tetracycline-regulated promoter in transformed E. coli with revTetR, in the presence and absence of anhydrotetracycline (atc)
Assay type: cell-based, Escherichia coli
Conditions: for β-Galactosidase Activity, Cultured Without ATC: RevTetR isolate cultured in the absence of anhydrotetracycline (ATC); for β-Galactosidase Activity, Cultured With ATC: RevTetR isolate cultured in the presence of anhydrotetracycline (ATC)
Procedure, shortened: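 TetR(BD) chimera mutants (TetR(B) residues 1–50, TetR(D) 51–208) expressed in E. coli regulating a tet operator-controlled lacZ. β-Galactosidase measured in Miller units at 28 °C and 37 °C with and without anhydrotetracycline; reported as percent of maximal expression without Tet repressor.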

Molecule | β-Galactosidase Activity, Cultured Without ATC | β-Galactosidase Activity, Cultured With ATC
B1 | 106.137 | 20.797
B2 | 97.6643 | 18.656
B3 | 102.406 | 18.841
B4 | 103.963 | 16.95
B5 | 110.999 | 14.693
B6 | 110.413 | 14.218
B7 | 3.143 | 0.9516
B8 | 93.7512 | 9.8301
B9 | 92.9198 | 8.4558
B10 | 85.7142 | 7.5138
B11 | 95.188 | 7.4009
B12 | 81.8583 | 3.0074
B13 | 24.1109 | 4.1882
B14 | 78.478 | 8.048
B15 | 104.757 | 16.831
B16 | 80.2859 | 3.7584
